Source: patent publication US20260216244A1 (published 2026)

Target: T1, EGFR L858R peptide on HLA-A*03:01 (human)
T1 peptide: KITDFGRAK
Assay: multimer staining

B1: TCR4 (TCR, V domains shown)
Valpha: QKEVEQNSGPLSVPEGAIASLNCTYSDRGSQSFFWYRQYSGKSPELIMSIYSNGDKEDGRFTAQLNKASQYVSLLIRDSQPSDSATYLCAVSATGFQKLVFGTGTRLLVSP
Vbeta: QVTQNPRYLITVTGKKLTVTCSQNMNHEYMSWYRQDPGLGLRQIYYSMNVEVTDKGDVPEGYKVSRKEKRNFPLILESPSPNQTSLYFCASTADRGGNEQFFGPGTRLTVL
B1: recognises.

B2: TCR3 (TCR, V domains shown)
Valpha: ENVEQHPSTLSVQEGDSAVIKCTYSDSASNYFPWYKQELGKRPQLIIDIRSNVGEKKDQRIAVTLNKTAKHFSLHITETQPEDSAVYFCAADMRFGAGTRLTVKP
Vbeta: GVTQTPKFRILKIGQSMTLQCTQDMNHNYMYWYRQDPGMGLKLIYYSVGAGITDKGEVPNGYNVSRSTTEDFPLRLELAAPSQTSVYFCASSYSRDSIREQYFGPGTRLTVT
B2: recognises.
